Data published in patent US20260250420A1 (SICHUAN KELUN BIOTECH BIOPHARMACEUTICAL, published 2026).

T1: human PTK7 on cells (tumor cells endogenously expressing PTK7); CHO-hPTK7, CHO-S-hPTK7 and 293T-hPTK7 … (human, UniProt Q13308 31-1070)
T1 construct: whole, on cells; The cell line of each value is named under assay; also called H1299; H358
T1 sequence (looked up): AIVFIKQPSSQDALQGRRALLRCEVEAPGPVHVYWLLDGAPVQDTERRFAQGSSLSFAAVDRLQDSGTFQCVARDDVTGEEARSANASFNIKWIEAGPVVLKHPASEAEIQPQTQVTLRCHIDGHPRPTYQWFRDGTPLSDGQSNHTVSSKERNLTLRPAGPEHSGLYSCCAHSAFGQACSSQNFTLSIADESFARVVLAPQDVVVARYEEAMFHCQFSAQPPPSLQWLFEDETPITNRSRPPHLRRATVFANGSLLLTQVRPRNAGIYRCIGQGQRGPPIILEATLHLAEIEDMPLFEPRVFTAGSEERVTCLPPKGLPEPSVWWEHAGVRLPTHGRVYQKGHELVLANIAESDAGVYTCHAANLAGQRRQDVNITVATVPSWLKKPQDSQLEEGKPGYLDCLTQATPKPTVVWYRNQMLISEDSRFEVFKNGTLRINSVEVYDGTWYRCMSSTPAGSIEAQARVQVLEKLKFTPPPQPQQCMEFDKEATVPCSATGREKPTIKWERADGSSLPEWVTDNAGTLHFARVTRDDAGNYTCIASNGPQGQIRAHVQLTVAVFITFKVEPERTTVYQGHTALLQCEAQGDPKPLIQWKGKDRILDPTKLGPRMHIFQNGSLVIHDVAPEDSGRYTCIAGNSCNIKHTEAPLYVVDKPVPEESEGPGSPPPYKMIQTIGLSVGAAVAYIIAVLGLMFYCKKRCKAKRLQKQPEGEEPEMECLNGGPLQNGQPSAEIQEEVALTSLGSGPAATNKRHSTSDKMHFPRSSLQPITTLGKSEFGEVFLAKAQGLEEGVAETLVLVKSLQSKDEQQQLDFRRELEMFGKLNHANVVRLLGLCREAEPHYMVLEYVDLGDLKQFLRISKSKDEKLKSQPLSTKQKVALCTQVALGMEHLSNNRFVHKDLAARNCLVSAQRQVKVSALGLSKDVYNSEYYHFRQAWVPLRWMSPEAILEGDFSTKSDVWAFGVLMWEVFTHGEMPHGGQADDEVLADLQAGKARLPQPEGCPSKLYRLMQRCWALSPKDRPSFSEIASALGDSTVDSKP

T2: monkey PTK7 protein (extracellular sequence of monkey PTK7 with C-terminal 6×His tag) (monkey)
T2 chain: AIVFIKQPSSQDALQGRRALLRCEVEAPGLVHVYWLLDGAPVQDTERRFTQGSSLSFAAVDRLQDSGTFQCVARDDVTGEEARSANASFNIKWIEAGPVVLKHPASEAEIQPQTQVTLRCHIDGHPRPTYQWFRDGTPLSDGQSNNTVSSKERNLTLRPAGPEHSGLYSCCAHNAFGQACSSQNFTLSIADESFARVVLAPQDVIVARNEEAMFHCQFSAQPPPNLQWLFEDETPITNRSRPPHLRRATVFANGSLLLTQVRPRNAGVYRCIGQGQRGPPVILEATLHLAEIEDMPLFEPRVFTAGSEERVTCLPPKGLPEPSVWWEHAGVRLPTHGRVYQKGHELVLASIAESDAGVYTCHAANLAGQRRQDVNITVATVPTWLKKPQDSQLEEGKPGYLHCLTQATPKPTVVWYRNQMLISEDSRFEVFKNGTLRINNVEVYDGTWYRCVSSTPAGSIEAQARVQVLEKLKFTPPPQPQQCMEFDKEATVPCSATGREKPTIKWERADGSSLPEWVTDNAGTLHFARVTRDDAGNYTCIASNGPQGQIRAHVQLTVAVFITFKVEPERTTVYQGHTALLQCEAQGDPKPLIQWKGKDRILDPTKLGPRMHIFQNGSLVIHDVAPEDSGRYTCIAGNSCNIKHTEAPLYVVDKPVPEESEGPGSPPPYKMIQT

T3: human PTK7 protein (extracellular sequence of human PTK7 with C-terminal 6×His tag) (human, UniProt Q13308 31-704)
T3 construct: extracellular domain; Expressed transiently in HEK293 cells; also called human PTK7-His; human PTK7-His protein
T3 sequence: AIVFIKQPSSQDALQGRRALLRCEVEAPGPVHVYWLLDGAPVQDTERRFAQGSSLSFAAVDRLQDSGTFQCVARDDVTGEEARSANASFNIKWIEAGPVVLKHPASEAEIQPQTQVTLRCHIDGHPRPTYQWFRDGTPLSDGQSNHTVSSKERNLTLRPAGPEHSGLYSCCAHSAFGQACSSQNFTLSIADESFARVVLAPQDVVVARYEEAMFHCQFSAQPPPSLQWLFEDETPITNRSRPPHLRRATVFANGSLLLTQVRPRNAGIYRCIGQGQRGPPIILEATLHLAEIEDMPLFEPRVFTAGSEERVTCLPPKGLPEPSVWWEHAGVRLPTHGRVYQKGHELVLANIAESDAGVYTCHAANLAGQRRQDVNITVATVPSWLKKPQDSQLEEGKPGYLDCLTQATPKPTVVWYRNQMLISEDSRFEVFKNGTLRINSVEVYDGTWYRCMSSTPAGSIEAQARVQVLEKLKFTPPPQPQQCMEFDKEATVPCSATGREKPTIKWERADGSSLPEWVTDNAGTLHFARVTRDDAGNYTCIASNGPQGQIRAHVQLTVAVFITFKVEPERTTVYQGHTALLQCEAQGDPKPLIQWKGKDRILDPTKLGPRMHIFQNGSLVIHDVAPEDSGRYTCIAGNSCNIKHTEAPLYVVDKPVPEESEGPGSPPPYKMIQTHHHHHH

T4: human Fc receptor protein CD32b (human, UniProt P31994 43-217, biotinylated)
T4 construct: Biotinylated protein captured on SA sensors
T4 sequence (looked up): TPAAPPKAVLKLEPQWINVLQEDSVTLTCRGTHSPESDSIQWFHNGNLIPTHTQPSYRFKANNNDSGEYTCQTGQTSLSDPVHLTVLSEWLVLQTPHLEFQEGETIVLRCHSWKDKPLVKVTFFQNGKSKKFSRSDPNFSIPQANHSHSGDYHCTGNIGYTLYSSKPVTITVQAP

T5: human Fc receptor protein CD32a (human, UniProt P12318 34-217, biotinylated)
T5 construct: Biotinylated protein captured on SA sensors
T5 sequence (looked up): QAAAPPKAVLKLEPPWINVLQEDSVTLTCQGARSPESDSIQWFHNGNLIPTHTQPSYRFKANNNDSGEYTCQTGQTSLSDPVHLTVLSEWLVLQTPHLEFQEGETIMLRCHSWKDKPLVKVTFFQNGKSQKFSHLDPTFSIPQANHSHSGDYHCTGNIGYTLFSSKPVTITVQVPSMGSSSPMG


How the values were obtained:
[1] = biological target: T1, human PTK7 on cells (tumor cells …); test: flow cytometry on CHO-hPTK7 overexpression cells
Text: A flow cytometer (Beckman, Cytoflex) was used for detecting the affinity of the anti-human PTK7 chimeric and humanized antibodies with human non-small cell lung cancer cells H1299, human lung adenocarcinoma cells H1975, human breast cancer cells T47D, human ovarian cancer cells OVCAR-3 (all purchased from NANJING COBIOER BIOSCIENCES CO., LTD) and CHO-hPTK7 overexpression cells.
The adherent cells were digested by using a pancreatin (Gibco) solution; a proper amount of cells were counted and taken, washed twice by using 1×PBS, and re-suspended in a 1% BSA solution; and then the cells were transferred into a 96-well deep plate at a density of 50 μl/well; a candidate antibody was diluted by using 1% BSA, then 50 μl of diluted antibody was added into the deep plate containing the cells, and incubated for 40 min at 4° C.; the cells were washed twice by using PBS, then 50 μl of diluted secondary antibody was added into each well, uniformly mixed, and incubated for 30 min at 4° C.; and the cells were washed twice by using PBS, then re-suspended in 400 μl of PBS, and subjected to examination by flow cytometer.

[2] = biological target: T1, human PTK7 on cells (tumor cells …); test: cell-based or functional assay
[3] = biological target: T1, human PTK7 on cells (tumor cells …); test: competition flow cytometry on 293T-hPTK7 cells, streptavidin-PE; competitor: biotin-labelled 4E12HZ
[4] = biological target: T2, monkey PTK7 protein (extracellular …); test: BLI (ForteBio), antibody on Protein A sensor, monkey PTK7 protein in solution
Text: (§1) The dynamic affinity of the control Hu24 and candidate antibodies 64A10HZ, 101A6HZ, 4E12HZ and 19C2HZ with human PTK7-His was detected by using ForteBio (Pall life sciences).
ELISA and ForteBio were adopted to detect binding of the anti-human PTK7 chimeric and humanized antibodies to the monkey, mouse and rat PTK7 proteins.

[5] = biological target: T3, human PTK7 protein (extracellular …); test: BLI (ForteBio), antibody on Protein A sensor, human PTK7-His 200-3.125 nM, 1:1 global fit
Text: as §1

[6] = biological target: T1, human PTK7 on cells (tumor cells …); test: competition flow cytometry on 293T-hPTK7 cells, streptavidin-PE; competitor: biotin-labelled Hu24
[7] = biological target: T1, human PTK7 on cells (tumor cells …); test: competition flow cytometry on 293T-hPTK7 cells, streptavidin-PE; competitor: biotin-labelled 19C2HZ
[8] = biological target: T1, human PTK7 on cells (tumor cells …); test: cell-based or functional assay; remark: listed apart in the source
[9] = biological target: T4, human Fc receptor protein CD32b; test: BLI (ForteBio), biotinylated receptor on SA sensor, antibody in solution
Text: (§2) The dynamic affinity of the antibodies 101A6HZ, 101A6HZm and Hu24 with human Fc receptor proteins CD16a, CD32a, CD32b, CD64 and FcRn was detected through ForteBio (Pall life sciences).

[10] = biological target: T6, human Fc receptor protein CD16a (human, UniProt P08637 17-208, biotinylated); test: as above
T6 construct: Biotinylated protein captured on SA sensors
T6 sequence (P08637 17-208 limits assumed): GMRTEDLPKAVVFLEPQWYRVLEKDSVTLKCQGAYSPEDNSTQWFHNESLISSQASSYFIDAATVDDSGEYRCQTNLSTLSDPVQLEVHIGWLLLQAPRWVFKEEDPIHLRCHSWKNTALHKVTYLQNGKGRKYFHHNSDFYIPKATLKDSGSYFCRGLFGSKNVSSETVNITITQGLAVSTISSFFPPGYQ
Text: as §2

[11] = biological target: T7, human Fc receptor protein CD64 (human, UniProt P12314 16-292, limits assumed, biotinylated); test: as above
T7 construct: Biotinylated protein captured on SA sensors
T7 sequence (P12314 16-292 limits assumed): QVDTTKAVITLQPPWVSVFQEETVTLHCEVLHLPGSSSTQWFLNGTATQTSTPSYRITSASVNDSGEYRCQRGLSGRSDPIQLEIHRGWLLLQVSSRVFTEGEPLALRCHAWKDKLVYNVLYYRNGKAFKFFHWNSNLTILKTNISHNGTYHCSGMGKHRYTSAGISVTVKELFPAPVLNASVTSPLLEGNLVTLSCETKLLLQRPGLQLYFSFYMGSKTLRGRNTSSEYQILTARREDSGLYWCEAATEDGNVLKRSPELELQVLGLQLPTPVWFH
Text: as §2

[12] = biological target: T5, human Fc receptor protein CD32a; test: as above
Text: as §2

[13] = biological target: T8, human Fc receptor protein FcRn (human, UniProt P55899 24-297; P61769 21-119, biotinylated); test: BLI (ForteBio), biotinylated receptor on SA sensor, antibody from 5,000 nM, 1:1 global fit
T8 construct: Biotinylated protein captured on SA sensors
Text: as §2

EC50 [1] [µg/mL] | FADU cell endocytosis activity, EC50 [2] [µg/mL] | IC50 (read off the curve) [3] [µg/mL] | Kd [4] [nM] | Kd [5] [nM] | koff [5] [s⁻¹] | kon [5] [M⁻¹ s⁻¹] | IC50 (read off the curve) [6] [µg/mL] | IC50 (read off the curve) [7] [µg/mL] | Cell endocytosis, EC50, A431 cells [8] [µg/mL] | Cell endocytosis, EC50, HCC1806 cells [8] [µg/mL] | Cell endocytosis, EC50, NCI-H358 cells [8] [µg/mL] | Cell endocytosis, EC50, OVCAR3 cells [8] [µg/mL] | Kd [13] [nM] | Binder | binding result [9] | binding result [10] | binding result [11] | binding result [12]
0.0414 | 0.147 | ~0.1 | 9.68 | 22 | 0.00534 | 243000 |  |  |  |  |  |  |  | 4E12HZ (anti-human PTK7 humanized antibody) (antibody, human IgG1, kappa, V domains shown, Human IgG1 heavy chain constant region and human Kappa light chain constant region) VH: QVQLVQSGAEVKRPGASVKVSCKTSGYTFTDYAMHWVRQAPGKGLEWIGVISTYYGNVSYNQKFKGRVTMTRDTSTSTVYMELSSLTSEDTAIYYCARGFAYWGQGTLVTVSS VL: DIVITQTELSLPVTPGERASISCRSSKSLQKKDGKTYLNWFLQKPGQSPQLLIYLMSTRASGVSDRFSGSGSGTDFTLKISRVEAEDVGVYYCQQLVEYPFTFGQGTKLEIKR |  |  |  | 
0.201 | 0.134 |  | 0.092 | 3.7 | 0.000728 | 197000 | ~0.6 | ~0.8 |  |  |  |  |  | 19C2HZ (anti-human PTK7 humanized antibody) (antibody, human IgG1, kappa, V domains shown, Human IgG1 heavy chain constant region and human Kappa light chain constant region) VH: QVTLKESGPTLVKPTQTLTLTCTFSGFSLSTSGMGINWIRQPPGKALEWLALIWWDDDKYYNPSLKNRLTITKDTSKNQVVLTMTNMDPVDTATYYCARSLITTAPSDYWGQGTLVTVSS VL: DIQMTQSPSSLSASVGDRVTITCKASQNVGTAITWYQQRPGKAPKLLIYSASNRYTGVPSRFSGSGSGTDFTLTISNLQPEDLATYFCLQYSDYPLTFGQGTRLEIKR |  |  |  | 
 |  |  |  |  |  |  |  |  | 0.0732 | 0.0576 | 0.0729 | 0.0665 | 16.6 | 101A6HZm (101A6HZ with mutant human heavy chain constant region IgG1m) (antibody, light chain as in 101A6HZ; also called anti-human PTK7 humanized mutant antibody) heavy: not shown light: DIVMTQSPDSLAVSLGERATINCKASQDVGSAVIWYQQKPGQSPKLLIYWASTRHTGVPDRFSGSGSGTDFTLTISSLQAEDVAVYYCQQYSSYPLTFGQGTKLEIKRTVAAPSVFIFPPSDEQLKSGTASVVCLLNNFYPREAKVQWKVDNALQSGNSQESVTEQDSKDSTYSLSSTLTLSKADYEKHKVYACEVTHQGLSSPVTKSFNRGEC | no binding (tested: initial concentration of 5,000 nM) | no binding (tested: initial concentration of 5,000 nM) | no binding (tested: initial concentration of 5,000 nM) | no binding (tested: initial concentration of 5,000 nM)
